Values quoted from earlier work in paper PMC9796269 (British Journal of Clinical Pharmacology, 2022).

CNP‐22: endogenous C‐type natriuretic peptide form, susceptible to Neprilysin degradation
calculated half‐life (clearance in human plasma): 2.6 min
